In the supplement of paper PMC9170038:

Test system: MS2 coat protein
Assay: apparent KD of MS2 coat protein; designed switch direction (-1 OFF switch, 1 ON switch): 1; higher = weaker reporter binding
Procedure, shortened: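 The buffer was Tris-HCl pH 7.5 with KCl, MgCl2, BSA, DTT, tRNA and Tween-20. In it, SNAP-549-labelled MS2 coat protein was titrated in doubling steps from 0.7 or 1.5 nM to 3 µM over chip-bound RNA switches transcribed by stalled E. coli RNA polymerase on Illumina chips. Apparent KD is the per-design median over clusters of curve fits to normalised fluorescence.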

[1] = input ligand: microRNA oligo, concentration not stated
[2] = Eterna round: R95, input ligand: microRNA oligo, concentration not stated
[3] = Eterna round: R95, input ligand: FMN 200 uM
[4] = Eterna round: R95, input ligand: none

| Sequence | apparent KD of MS2 coat protein (input ligand: FMN 200 uM) | apparent KD of MS2 coat protein [1] | apparent KD of MS2 coat protein (input ligand: none) | apparent KD of MS2 coat protein [2] | apparent KD of MS2 coat protein [3] | apparent KD of MS2 coat protein [4] |
| --- | --- | --- | --- | --- | --- | --- |
| GCGAUAUGAUGCUACAUGAGGAUCACCCAUGUAGCGACAGCUAAGGAUAUUGGAAAGGGAGGAGACGAGAAGGUAGGGUCACGC [AK SSNG3-V2-24.1] (Eterna round: R96, puzzle: Same State NG 3) | 11.5 nM | 11.6 nM | 17.2 nM |  |  |  |
| UUUCUCAUGUAAGGAUAUGCAGCCGUUUCGGCUGCAGAAGGUACUAUAAUACAUGAGGAUCACCCAUGUCUCUAUUAUUUAGUU [JL SSNG1 1.44] (Eterna round: R96, puzzle: Same State NG 1) | 84.7 nM | 39.9 nM | 47.1 nM |  |  |  |
| AUUGGGUAACGAGGAUAUCGUUUUUGUUUUCUUCGAGAAGGCGUUAUUGUUUAUUUCUAUUGUUACAUGAGGAUCACCCAUGUU [JR_SSNG1_Sub055] (Eterna round: R96, puzzle: Same State NG 1) | 15 nM | 13.8 nM | 21.5 nM |  |  |  |
| CAGUGCUGUUGAGAGGAUAUGCGGUGAUGGACAUGAGGAUCACCCAUGUUAGCGACAGCGUUACGGCAGAAGGCUCUACCCACUG [Soteed Omei mod 48] (puzzle: Same State 2) |  |  |  | 39.1 nM |  |  |
| UGAACCGUCACAGGAUAUCAUGCGAAAAUUGCGUGAGAAGGGUGGAUGUUGUGCUCAAAGUUAUACAUGAGGAUCACCCAUGUU [SameState NG1 #45] (Eterna round: R96, puzzle: Same State NG 1) | 133 nM | 188 nM | 285 nM |  |  |  |
| AGUCCAGCGAAAGCUGGACAAAAGCAUGUACAUGAGGAUCACCCAUGUUCAUGUACAAGCUUUUUGCUCGUCUUAAA [Mat - Sensor - JL mod - D95] (Eterna round: R96, puzzle: Sensor for hsa-mir-208a) | 485 nM | 14.1 nM | 467 nM |  |  |  |
| GCUAGAAUAAAUGCUAACAUGAGGAUCACCCAUGUAUGUUGGCAGGAUAUCGUAUGCAAAGCAUACGAGAAGGGCCAUACUAGC [Mat - Same State NG 3 - JL Mod - D27] (Eterna round: R96, puzzle: Same State NG 3) | 17.3 nM | 20.4 nM | 29.5 nM |  |  |  |
| GCGAGCGUACUUGCAGACAUGAGGAUCACCCAUGUAAAUGGGAAGGAUAUGGUACCGUUUCGGUACCAGAAGGUCCUAAGUGAG [JL SSNG3 1.49] (Eterna round: R96, puzzle: Same State NG 3) | 129 nM | 702 nM | 646 nM |  |  |  |
| UUAGAAUUGCAAGGAUAUCUAAUUUAGAUAGUAAGAGAAGGUGCUUUAUAGUUACAUGAGGAUCACCCAUGUUUUUUUGUUUAU [JR_SSNG1_Sub059] (Eterna round: R96, puzzle: Same State NG 1) |  | 26.5 nM |  |  |  |  |
| GUGCUCGUGUGAGGAUAUGCGGCCGGGUCGGCUGCAGAAGGUACUAUUAUACAUGAGGAUCACCCAUGUCGCUUUUCUCCGGUG [salish99_SSNG1_r04_919] (Eterna round: R96, puzzle: Same State NG 1) | 62.5 nM | 41.2 nM | 49 nM |  |  |  |
| GUGAAACAUGAGGAUCACCCAUGUAUGACGGGCACAGGAUAUCGUGGUUCGCUCAUACUACGAGAAGGGUGAAAAG [Inordien] (puzzle: Same State 1) |  |  |  | 18 nM | 20.5 nM | 18.9 nM |
| GGAGCCGGUACUGAGGAUAUUCAUAUUAAAACAUGAGGAUCACCCAUGUAGGCCAGAAGGCCUUGGGAGAAGGCAGGCCAGCUCG [Atgexeedri - 4] (puzzle: Same State 2) |  |  |  | 270 nM | 20.2 nM | 458 nM |
| GGUCCAGCCUGAGCUGGACAAAAGCAUGUACAUGAGGAUCACCCAUGUCAUGUACAAGUUUUUUGCUCGUCUUAAAA [JL mod - D87 - 12] (puzzle: Sensor for hsa-mir-208a) |  |  |  | 10.6 nM | 35.3 nM | 38.7 nM |
| AAUCGUUUAAUAGGAUAUCGCUAUACAUGAGGAUCACCCAUGUUUACCACGCUGGUUUUUCGUACCGAGAAGGAUUCUGAUGAU [JL JR sub007 mod 8] (Eterna round: R96, puzzle: Same State NG 2) | 36.6 nM | 26.5 nM | 39.9 nM |  |  |  |
| GUGGCUGCCACAGGAUAUACCGUGUAAUUCACGGUAGAAGGGUGAAGCACUCAAAAGAGUGCUAACAUGAGGAUCACCCAUGUG [Quzaon] (Eterna round: R96, puzzle: Same State NG 1) | 1040 nM | 170 nM | 290 nM |  |  |  |
| UGGUACAUGGGAGGAUAUCAUGUAGAAACAUGAGGAUCACCCAUGUAGAUGGCCGGUAACCGGGAUGAGAAGGCCCAUGUACCU [JL SSNG1 3.64] (Eterna round: R96, puzzle: Same State NG 2) | 27 nM | 22.4 nM | 30.3 nM |  |  |  |

| Sequence | apparent KD of MS2 coat protein (input ligand: FMN 200 uM) | apparent KD of MS2 coat protein [1] | apparent KD of MS2 coat protein (input ligand: none) | apparent KD of MS2 coat protein [2] | apparent KD of MS2 coat protein [3] | apparent KD of MS2 coat protein [4] |
| --- | --- | --- | --- | --- | --- | --- |
| UCUUGGUUUUUGCUCGUUUUUUGUGUUGAACAUGAGGAUCACCCAUGUAUUGUACGGUCCAAUUUAGUGGUAAUCCG [JMF 66] (puzzle: Sensor for hsa-mir-208a) |  |  |  | 29 nM | 45.1 nM | 48.7 nM |
| AUAGUUGCUGAAGGAUAUGAUGAGGAUCACCCAUCAGAAGGUUGGCUAUUGGGUGGACAUGAGGAUCACCCGUGUUCUUUGGUA (Eterna round: R96, puzzle: Same State NG 1) | 48.6 nM | 59.1 nM | 82.4 nM |  |  |  |
| UGUUGUAUUACAGGAUAUCUAGUAUUUUUAUUUAGAGAAGGGUAUUCACAUGAGGAUCACCCAUGUAUAUACGAGGAAGUUGUG [JMF's solution 9] (Eterna round: R96, puzzle: Same State NG 1) |  | 28 nM |  |  |  |  |
| GGCUGCGUUGUGAAGGAUAUCCGCGUCUGGACAUGAGGAUCACCCAUGUAUGCUUGGAUCAUGCCGGAGAAGGUCACGAAUGAUU [JR_SS002_Sub1214] (Eterna round: R96, puzzle: Same State 2) | 17 nM | 19.9 nM | 32.9 nM |  |  |  |
| GAGUGGUGGAAAGGAUAUGCAUUGUUAUUCACUGUAGAAGGUUCUAACAUGAGGAUCACCCAUGUAGGACUAUUCCUGUGUUUU [Parity 59 - Jieux - Same State NG 1] (Eterna round: R96, puzzle: Same State NG 1) |  | 10.2 nM |  |  |  |  |
| AAAGGAUGAUGUUACAUGAGGAUCACCCAUGUUGUGAUAACUAAGGAUAUGUGUUUAACCAGUUAAUAGAAGGUAGGAUCAUAA [AK SSNG3-V2-4] (Eterna round: R96, puzzle: Same State NG 3) | 168 nM | 97.4 nM | 124 nM |  |  |  |
| AGGAAACAUGAGGAUCACCCAUGUAAAAAAGUGGGAGGAUAUACUAGAAGAAACAAAAUAGUAGAAGGCCUAAAAA [75%, Ex sub1, 32] (Eterna round: R96, puzzle: Same State 1) | 19.1 nM | 37.7 nM | 42.3 nM |  |  |  |
| UGGAUCUAGGCUUGCCUGGGUCCAUGUUGACAUGAGGAUCACCCAUGUGUAUUCUAUAAGCUUUUUGUUUGUCAACU (puzzle: Sensor for hsa-mir-208a) |  |  |  | 23.3 nM | 62.5 nM | 130 nM |
| GGGCCAGCCUGUGCUGGGCUUUAGCAUGUACAUGAGGAUCACCCAUGUCGUGUACAUGCUUUUUGCUCGUCUUUAAA [Photon Torp-07] (puzzle: Sensor for hsa-mir-208a) |  |  |  | 22.5 nM | 70.5 nM | 100 nM |
| GCCGCACAUGAGGAUCACCCAUGUAAUUACAUGGGAGGAUAUCAGUGCUCGAAAGAGCACUGAGAAGGCCUGUGGC [SS1 - Omei A v2] (puzzle: Same State 1) |  |  |  | 31.9 nM | 399 nM | 39 nM |
| UGGCUCAGACGAGGAUAUGAUCAUGGCGCUUCGGCGCAUACAUGAGGAUCACCCAUGUAGGGUGAUCAGAAGGCGUCUGAGCCA [SSNG2/8-A2] (Eterna round: R96, puzzle: Same State NG 2) | 55.8 nM | 413 nM | 460 nM |  |  |  |
| GCUUGCGGCGCAGGAUAUGGGUGCCUGUACAUGAGGAUCACCCAUGUUAAGGGACGGAAAACGAACCAGAAGGGCGUCGCGAGC [Inraeded] (Eterna round: R96, puzzle: Same State NG 2) | 84.9 nM | 218 nM | 1280 nM |  |  |  |
| UUAAUGAUGUAAGGAUAUACAUGAGGAUUUCUCGUAGAAGGUACAAGACAUGAGGAUCACCCAUGUGUCGCUCAAUAGAGCGUA [Mat - Same State NG 1 - JL mod - D19] (Eterna round: R96, puzzle: Same State NG 1) | 268 nM | 138 nM | 292 nM |  |  |  |
| GGUAUCUCCCGUGAGGAUAUGCGGCGUAGAACAUGAGGAUCACCCAUGUCCUUCGAAUGGGUUACGCAGAAGGCACGACGGUACC [Robot Leg #2] (puzzle: Same State 2) |  |  |  | 24.5 nM |  |  |
| UAAAGCGACGUAGGAUAUCCUCUACAUGCGUAAGGAGAAGGAUGCGCAACAUGAGGAUCACCCAUGUAAAACCAGCACUGCUGG [Isaerte] (Eterna round: R96, puzzle: Same State NG 1) | 71.9 nM | 22.5 nM | 36.7 nM |  |  |  |
| CGUCCAGCCUGAGCUGGACAAAAGCAUGUACAUGAGGAUCACCCAUGUUCAUGUACAAGCUUUUUGCUCGUCUUACC [salish99_208a_r3_094x] (Eterna round: R96, puzzle: Sensor for hsa-mir-208a) | 760 nM | 14.3 nM | 752 nM |  |  |  |
